Results: paper PMC2809091, “Dissociation of the Octameric Enolase from S. Pyogenes - One Interface Stabilizes Another” (PLoS ONE, 2010)

Molecular target: the molecule itself
Test: AUC; sedimentation velocity, 35,000 rpm, 15°C; 2.7 µM enolase (subunits) in TME buffer (50 mM Tris/HCl, 1 mM Mg(OAc)2, 0.1 mM EDTA, pH 7.4) without NaClO4; c(s) analysis (SEDFIT), mass also from DLS radius and DCDT+; octamer

B1: wild type octameric enolase from S. pyogenes (enzyme, UniProt P69949 1-435, looked up)
chain: MSIITDVYAREVLDSRGNPTLEVEVYTESGAFGRGMVPSGASTGEHEAVELRDGDKSRYLGLGTQKAVDNVNNIIAEAIIGYDVRDQQAIDRAMIALDGTPNKGKLGANAILGVSIAVARAAADYLEVPLYTYLGGFNTKVLPTPMMNIINGGSHSDAPIAFQEFMIMPVGAPTFKEGLRWGAEVFHALKKILKERGLVTAVGDEGGFAPKFEGTEDGVETILKAIEAAGYEAGENGIMIGFDCASSEFYDKERKVYDYTKFEGEGAAVRTSAEQVDYLEELVNKYPIITIEDGMDENDWDGWKVLTERLGKRVQLVGDDFFVTNTEYLARGIKENAANSILIKVNQIGTLTETFEAIEMAKEAGYTAVVSHRSGETEDSTIADIAVATNAGQIKTGSLSRTDRIAKYNQLLRIEDQLGEVAQYKGIKSFYNLKK
notes: enolase (EC 4.2.1.11) of Streptococcus pyogenes; no removal of the His tag is described; also called wild type enolase; wild type enzyme; source: E. coli BL21(DE3), pET-14b, purified (Ni-NTA, dialysis, (NH4)2SO4 precipitation)
- stoichiometry N: 8
